Series [1] addresses ClpXP (sc6ClpXΔN-bio with ClpP; ATP site on ClpX) (Escherichia coli, UniProt P0A6H1, C169S/K408E). Put plainly: bio-layer interferometry, ClpP association to immobilised ClpX. Format: binding.
Series [2] concerns Nc1ncnc2c1ncn2[C@@H]1O[C@H](COP(=O)(O)OP(=O)(O)OP(=O)(O)O)[C@@H](O)[C@H]1O. As to the kind of experiment: coupled ATP hydrolysis assay. In kind it is biochemical, Escherichia coli. The following applies: pH 7.5.
The subject of series [3] is ^sc6ClpX^ΔN-bio single-chain ClpX^ΔN pseudohexamer. Put plainly: BLI.
Series [4] concerns the target ^sc6ClpX^ΔN-bio single-chain ClpX^ΔN pseudohexamer (E. coli). Put plainly: BLI.
[5] abbreviates: excess ClpP (1 μM), Hill n = 2.2, 10 mM MgCl2, 30 °C.
[6] abbreviates: no ClpP, Hill n = 2.4, 10 mM MgCl2, 30 °C.

`Nc1ncnc2c1ncn2[C@@H]1O[C@H](COP(=O)(O)OP(=O)(O)OP(=O)(O)O)[C@@H](O)[C@H]1O` [ATP]: in series [1], a half-maximal response (EC50) required 100 ± 2 µM.

As for “ClpXP (sc6ClpXΔN-bio with ClpP; ATP site on ClpX) (Escherichia coli K-12; C169S/K408E)”, in series [2] (setting [5]), the K0.5 was found to be 29 µM and the kcat turned out to be 41 min^−1 enz^−1.

Regarding E. coli ClpP (C91V, C113A), in series [3], the “kobs of association at 200 nM ClpP, maximal fitted value against ATP” value was 0.138 ± 0.001 s^−1 for kobs; the “maximal rate of kobs-1 (double-exponential association, amplitude ~70%)” value was “the maximal rate was 22 ± 7 s^−1”; the “maximal rate of kobs-2 (double-exponential association, amplitude ~30%)” value is on record as “the maximal rate was 0.54 ± 0.2 s^−1”.

As for E. coli ClpP (C91V, C113A) (enzyme), in series [4], the Kd is < 0.0001 µM, the dissociation rate constant in the absence of nucleotide or presence of ADP is < 0.07 s⁻¹, the fold more kinetically stable in 7:1 ADP:ATP against ADP alone is 100 fold and the half-life of ADEP-2B-induced dissociation came out at 1 s. Besides, in series [4], the half-life of dissociation in ADP (complex formed with ATP) is 5 s; the half-life of dissociation in ADP (complex formed with ATPγS) came to 20 s; the half-maximal binding, total ClpP concentration was found to be 160 pM; the maximum dissociation rate constant with ADEP-2B (hyperbolic fit) was 2 s⁻¹.

Turning to “sc6ClpXΔN-bio (Escherichia coli K-12; C169S/K408E)”, in series [2] (setting [6]), the K0.5 was 42 ± 3 µM and the kcat is recorded as 73 min^−1 enz^−1.
